Measured values as given in PMC3266953 (Scientific Reports, 2012).

Target: the molecule itself
Experiment: crystal structure

B1: NcdG347D, truncated dimeric protein (MGSM-H293-K700) (domain or fragment)
chain: MGSMHAALSTEVVHLRQRTEELLRCNEQQAAELETCKEQLFQSNMERKELHNTVMDLRDNIRVFCRIRPPLESEENRMCCTWTYHDESTVELQSIDAQAKSKMGQQIFSFDQVFHPLSSQSDIFEMVSPLIQSALDGYNICIFAYGQTGSGKTYTMDGVPESVGVIPRTVDLLFDSIRGYRNLGWEYEIKATFLEIYNEVLYDLLSNEQKDMEIRMAKNNKNDIYVSNITEETVLDPNHLRHLMHTAKMNRATASTAGNERSSRSHAVTKLELIGRHAEKQEISVGSINLVDLAGSESPKTSTRMTETKNINRSLSELTNVILALLQKQDHIPYRNSKLTHLLMPSLGGNSKTLMFINVSPFQDCFQESVKSLRFAASVNSCKMTKAKRNRYLNNSVANSSTQSNNSGSFDK
stoichiometry N: 2
